Results: patent publication US20200362323

Columns and labels:
Assay in all cases: cell_activity
[1] = system: mouse TRB2-TALEN right (artificial (Xanthomonas TALE-FokI)?); conditions: SSA reporter assay in HEK293T, pair with left TALEN; site given as top strand
[2] = system: mouse TRA2-TALEN right (artificial (Xanthomonas TALE-FokI)?); conditions: SSA reporter assay in HEK293T, pair with left TALEN; site given as top strand
[3] = system: mouse TRB2-TALEN left (artificial (Xanthomonas TALE-FokI)?); conditions: SSA reporter assay in HEK293T, pair with right TALEN
[4] = system: mouse TRB1-TALEN left (artificial (Xanthomonas TALE-FokI)?); conditions: SSA reporter assay in HEK293T, pair with right TALEN
[5] = system: mouse TRB1-TALEN right (artificial (Xanthomonas TALE-FokI)?); conditions: SSA reporter assay in HEK293T, pair with left TALEN; site given as top strand
[6] = system: mouse TRA2-TALEN left (artificial (Xanthomonas TALE-FokI)?); conditions: SSA reporter assay in HEK293T, pair with right TALEN

For “GGAGCTGAGCTGGTGGGTGA (double strand) [mouse TRB2 right target]”, the activity (fold vs ZFA36) [1] was 3.41.

Work on “AATGTGCCGAAAACCATGGA (double strand) [mouse TRA2 right target]” yielded an activity (fold vs ZFA36) [2] of 3.09.

“TGTGCTTGGCCAGGGGCTTC (double strand) [mouse TRB2 left target]” was tested, and the activity (fold vs ZFA36) [3] was 3.41.

Work on “TGACTCCACCCAAGGTCTCC (double strand) [mouse TRB1 left target]” yielded an activity (fold vs ZFA36) [4] of 3.79.

“AAAAGCAGAGATTGCAAACA (double strand) [mouse TRB1 right target]” was tested, and the activity (fold vs ZFA36) [5] was 3.79.

“TCTGCCTGTTCACCGACT (double strand) [mouse TRA2 left target]” was tested, and the activity (fold vs ZFA36) [6] was 3.09.
